# Measurements as given in paper PMC8748714 (2022).
# B1: unnamed (parent)
# chain 1: HSQGTFTSDYSKYLDSRRAQDFVQWLMNTKRNRNNIA
# chain 2: RPQGATVSLWETVQKWREYRRQCQRSLTEDPPPATDLFCNRTFDEYACWPDGEPGSFVNVSCPWYLPWASSVPQGHVYRFCTAEGLWLQKDNSSLPWRDLSECEESKRGERSSPEEQLLFLYIIYTVGYALSFSALVIASAILLGFRHLHCTRNYIHLNLFASFILRALSVFIKDAALKWMYSTAAQQHQWDGLLSYQDSLSCRLVFLLMQYCVAANYYWLLVEGVYLYTLLAFSVLSEQWIFRLYVSIGWGVPLLFVVPWGIVKYLYEDEGCWTRNSNMNYWLIIRLPILFAIGVNFLIFVRVICIVVSKLKANLMCKTDIKCRLAKSTLTLIPLLGTHEVIFAFVMDEHARGTLRFIKLFTELSFTSFQGLMVAILYCFVNNEVQLEFRKSWERWRLEHLHIQRDSSMKPLKCPTSSLSSGATAGSSMYTATCQASCS
# Variants of: B1
# Experiment: radioligand competition binding on whole cells
# Settings: with partner chain of the complex shown;; read off a plot
row,Variant,log10 ratio
1,chain 2 RPQGATVSLWETVQKWREYRRQCQRSLTEDPPPATDLFCNRTFDEYACWPDGEPGSFVNVSCPWYLPWASSVPQGHVYRFCTAEGLWLQKDNSSLPWRDLSECEESKRGERSSPEEQLLFLYIIYTVGYALSFSALVIASAILLGFRHLHCTRNYIHLNLFASFILAALSVFIKDAALKWMYSTAAQQHQWDGLLSYQDSLSCRLVFLLMQYCVAANYYWLLVEGVYLYTLLAFSVLSEQWIFRLYVSIGWGVPLLFVVPWGIVKYLYEDEGCWTRNSNMNYWLIIRLPILFAIGVNFLIFVRVICIVVSKLKANLMCKTDIKCRLAKSTLTLIPLLGTHEVIFAFVMDEHARGTLRFIKLFTELSFTSFQGLMVAILYCFVNNEVQLEFRKSWERWRLEHLHIQRDSSMKPLKCPTSSLSSGATAGSSMYTATCQASCS [chain 2 R167A],0.1 pIC50 ΔWT
2,chain 2 RPQGATVSLWETVQKWREYRRQCQRSLTEDPPPATDLFCNRTFDEYACWPDGEPGSFVNVSCPWYLPWASSVPQGHVYRFCTAEGLWLQKDNSSLPWRDLSECEESKRGERSSPEEQLLFLYIIYTVGYALSFSALVIASAILLGFRHLHCTRNYIHLNLFASFILRALSVFIADAALKWMYSTAAQQHQWDGLLSYQDSLSCRLVFLLMQYCVAANYYWLLVEGVYLYTLLAFSVLSEQWIFRLYVSIGWGVPLLFVVPWGIVKYLYEDEGCWTRNSNMNYWLIIRLPILFAIGVNFLIFVRVICIVVSKLKANLMCKTDIKCRLAKSTLTLIPLLGTHEVIFAFVMDEHARGTLRFIKLFTELSFTSFQGLMVAILYCFVNNEVQLEFRKSWERWRLEHLHIQRDSSMKPLKCPTSSLSSGATAGSSMYTATCQASCS [chain 2 K174A],-1.9 pIC50 ΔWT
3,chain 2 RPQGATVSLWETVQKWREYRRQCQRSLTEDPPPATDLFCNRTFDEYACWPDGEPGSFVNVSCPWYLPWASSVPQGHVYRFCTAEGLWLQKDNSSLPWRDLSECEESKRGERSSPEEQLLFLYIIYTVGYALSFSALVIASAILLGFRHLHCTRNYIHLNLFASFILRALSVFIKDAALKWMYSTAAQQHQWDGLLSYQDSLSCRLVFLLMQYCVAANYYWLLVEGVYLYTLLAFSVLSEQWIFRLYVSIGWGVPLLFVVPWGIVKYLYEDEGCATRNSNMNYWLIIRLPILFAIGVNFLIFVRVICIVVSKLKANLMCKTDIKCRLAKSTLTLIPLLGTHEVIFAFVMDEHARGTLRFIKLFTELSFTSFQGLMVAILYCFVNNEVQLEFRKSWERWRLEHLHIQRDSSMKPLKCPTSSLSSGATAGSSMYTATCQASCS [chain 2 W274A],-0.4 pIC50 ΔWT
4,chain 2 RPQGATVSLWETVQKWREYRRQCQRSLTEDPPPATDLFCNRTFDEYACWPDGEPGSFVNVSCPWYLPWASSVPQGHVYRFCTAEGLWLQKDNSSLPWRDLSECEESKRGERSSPEEQLLFLYIIYTVGYALSFSALVIASAILLGFRHLHCTRNYIHLNLFASFILRALSVFIKDAALKWMYSTAAQQHQWDGLLSYQDSLSCRLVFLLMQYCVAANYYWLLVEGVYLYTLLAFSVLSEQWIFRLYVSIGWGVPLLFVVPWGIVKYLYEDEGCWTRNSNMNYWLIIRLPILFAIGVNFLIFVRVICIVVSKLKANLMCKTDIKCRLAKSTLTLIPLLGTHAVIFAFVMDEHARGTLRFIKLFTELSFTSFQGLMVAILYCFVNNEVQLEFRKSWERWRLEHLHIQRDSSMKPLKCPTSSLSSGATAGSSMYTATCQASCS [chain 2 E341A],0.3 pIC50 ΔWT
5,chain 2 RPQGATVSLWETVQKWREYRRQCQRSLTEDPPPATDLFCNRTFDEYACWPDGEPGSFVNVSCPWYLPWASSVPQGHVYRFCTAEGLWLQKDNSSLPWRDLSECEESKRGERSSPEEQLLFLYIIYTVGYALSFSALVIASAILLGFRHLHCTRNYIHLNLFASFILRALSVFIKDAALKWMYSTAAQQHQWDGLLSYQDSLSCRLVFLLMQYCVAAAYYWLLVEGVYLYTLLAFSVLSEQWIFRLYVSIGWGVPLLFVVPWGIVKYLYEDEGCWTRNSNMNYWLIIRLPILFAIGVNFLIFVRVICIVVSKLKANLMCKTDIKCRLAKSTLTLIPLLGTHEVIFAFVMDEHARGTLRFIKLFTELSFTSFQGLMVAILYCFVNNEVQLEFRKSWERWRLEHLHIQRDSSMKPLKCPTSSLSSGATAGSSMYTATCQASCS [chain 2 N217A],0.3 pIC50 ΔWT

# Variants of: B1
# Experiment: radioligand competition binding on whole cells
# Settings: with partner chain of the complex shown;; read off a plot
# Remark: another data set of the same source
row,Variant,log10 ratio
1,chain 2 RPQGATVSLWETVQKWREYRRQCQRSLTEDPPPATDLFCNRTFDEYACWPDGEPGSFVNVSCPWYLPWASSVPQGHVYRFCTAEGLWLQKDNSSLPWRDLSECEESKRGERSSPEEQLLFLYIIYTVGYALSFSALVIASAILLGFRHLHCTRNYIHLNLFASFILRALSVFIKDAALKWMYSTAAQQHQWDGLLSYQDSLSCRLVFLLMQYCVAANYYWLLVEGVYLYTLLAFSVLSEQWIFRLYVSIGWGVPLLFVVPWGIVKYLYEDEGCATRNSNMNYWLIIRLPILFAIGVNFLIFVRVICIVVSKLKANLMCKTDIKCRLAKSTLTLIPLLGTHEVIFAFVMDEHARGTLRFIKLFTELSFTSFQGLMVAILYCFVNNEVQLEFRKSWERWRLEHLHIQRDSSMKPLKCPTSSLSSGATAGSSMYTATCQASCS [chain 2 W274A],-0.3 pIC50 ΔWT
2,chain 2 RPQGATVSLWETVQKWREYRRQCQRSLTEDPPPATDLFCNRTFDEYACWPDGEPGSFVNVSCPWYLPWASSVPQGHVYRFCTAEGLWLQKDNSSLPWRDLSECEESKRGERSSPEEQLLFLYIIYTVGYALSFSALVIASAILLGFRHLHCTRNYIHLNLFASFILRALSVFIKDAALKWMYSTAAQQHQWDGLLSYQDSLSCRLVFLLMQYCVAANYYWLLVEGVYLYTLLAFSVLSEQWIFRLYVSIGWGVPLLFVVPWGIVKYLYEDEGCWTRNSNMNYWLIIRLPILFAIGVNFLIFVRVICIVVSKLKANLMCKTDIKCRLAKSTLTLIPLLGTHEVIFAFVMDEHARGTLRFIKLFTALSFTSFQGLMVAILYCFVNNEVQLEFRKSWERWRLEHLHIQRDSSMKPLKCPTSSLSSGATAGSSMYTATCQASCS [chain 2 E364A],-0.85 pIC50 ΔWT
